Laboratory results as given in patent US20040171537A1 (HOSPITAL FOR SICK CHILDREN, published 2004).

Legend:
[1] = target: T1, c-Cbl (endogenous, Jurkat T-cell lysate) (human, UniProt P22681 1-906, tyrosine phosphorylated after anti-CD3 stimulation (sites not given)); experiment: GST pull-down from unstimulated or anti-CD3 stimulated Jurkat lysates, anti-c-Cbl immunoblot
T1 construct: also called 120 kDa phosphoprotein
Method: Full-length MARS and MARS-v coding regions were fused in-frame to glutathione-S-transferase, in PGEX4T1. Recombinant GST fusion proteins were expressed in bacteria and purified on glutathione sepharose (GS) (Pharmacia). Jurkat T-cells (20×10⁶) were either left unstimulated (−) or stimulated with anti-CD3 (+); (anti-human CD3ε, clone UCGT1, Pharmingen) for 2 minutes. Cells were lysed in 1% NP-40 lysis buffer containing 1 mM sodium orthovanadate and complete protease inhibitors (Roche). Cell lysates were incubated with 4 μg of GS bound GST fusion proteins for 90 minutes at 4° C. and washed 4 times for 10 minutes with 0.1% NP-40 lysis buffer. Bound proteins were eluted by boiling in 2×SDS sample buffer and were resolved by SDS-PAGE on 10% polyacrylamide gels. Proteins were subsequently transferred to PVDF membrane (NEN) and blotted with anti-phosphotyrosine antibody (clone 4G10, UBI; top panel, FIG. 13). Membranes were stripped and reprobed with anti-c-Cbl antibody (Santa Cruz; middle panel, FIG. 13), and subsequently stained with Coomassie blue dye to check for equal loading of the respective fusions (bottom panel, FIG. 13).

[2] = target: T1, c-Cbl (endogenous, Jurkat T-cell lysate); experiment: GST pull-down from Jurkat T-cell lysates, anti-c-Cbl immunoblot

binding result [2]	Binder	binding result [1]
	GST fusion of human MARS-v (MARS short isoform, splice variant) (other, not shown: a dimerising Fc or GST; large carriers; small tags and cut ends, N-terminal GST fusion from pGEX-4T1; GST letters are not given and are left out, The full-length MARS-v coding region (210 amino acids) was fused in-frame to GST; also called MARS-variant; MARS splice variant) MGSLPSRRKSLPSPSLSSSVQGQGPVTMEAERSKATAVALGSFPAGGPAELSLRLGEPLTIVSEDGDWWTVLSEVSGREYNIPSVHVAKVSHGWLYEGLSREKAEELLLLPGNPGGAFLIRESQTRRGSYSLSVRLSRPASWDRIRHYRIHCLDNGWLYISPRLTFPSLQALVDHYSEGWPAPWQGYTPTCDCAEDTTQLERAGQLPPVF	no binding (tested: 4 µg of GS bound GST fusion proteins)
no binding	GST-MARS delta-C (deletion of the carboxy-terminal 70 amino acids) (other, not shown: a dimerising Fc or GST; large carriers; small tags and cut ends, N-terminal GST fusion from pGEX-4T1; GST letters are not given and are left out, Residues 1-189 are worked out from the 259-residue entry; also called MARS AC mutant; C-terminal deletion mutant of MARS) MGSLSSRGKTSSPSPSSSGPDQEPVSMQPERHKVTAVALGSFPAGEQARLSLRLGEPLTIISEDGDWWTVQSEVSGREYHMPSVYVAKVAHGWLYEGLSREKAEELLLLPGNPGGAFLIRESQTRRGCYSLSVRLSRPASWDRIRHYRIQRLDNGWLYISPRLTFPSLHALVEHYSELADGICCPLREP	
